Laboratory results published in publication PMC12457637, “An aptamer-drug conjugate for promising cancer therapy with comprehensive evaluation from rodents to non-human primates” (Signal Transduction and Targeted Therapy, 2025).
Where two headings read alike, the source gives them in different places. Non-standard residues stand in square brackets, D forms with d. Residues, ends and D or L forms follow the SMILES beside them. *: point of attachment. Dolaproine = CO[C@@H]([C@@H]1CCCN1)[C@@H](C)C(=O)O; Dil = CC[C@H](C)[C@H](NC)[C@@H](CC(=O)O)OC; X1 = C[C@@H](N*)[C@@H](O)c1ccccc1; NMeV = CN[C@H](C(=O)O)C(C)C

How the values were obtained:
[1] = system: MDA-MB-468 xenograft; assay: Antitumor efficacy, MDA-MB-468 xenograft; assay type: in vivo, mice; settings: free MMAE at equivalent dose (0.359 mg/kg i.v.)
Protocol: (§1) In vivo therapeutic evaluations were performed to evaluate the antitumor effects of the PTK7-targeted ApDC Sgc8c-M with comparisons made between the chemotherapeutic drug paclitaxel and the ApDC’s toxic payload MMAE in most cases. […] All tumor models were established on female BALB/c nude mice. Briefly, a 50 μL suspension of tumor cells (SUM159: 5 × 10^6, MDA-MB-468: 1 × 10^7, MIA PaCa-2: 5 × 10^6, OVCAR3: 5 × 10^6, HT-29: 5 × 10^6, NCI-H1975: 5 × 10^6, A549: 5 × 10^6) mixed with an equal volume of Matrigel (BD) was injected s.c. into the right hind flank region of mice. For the TNBC PDX and pancreatic cancer PDX F4 and F5 models, 3–5 mm^3 of tumor fragments were implanted into the right hind flank region of mice. When tumor sizes reached approximately 100 mm^3–300 mm^3, the mice were randomly divided into control and treatment groups. Sgc8c-M (i.v.), paclitaxel (i.p.), MMAE (i.v.), or ADC h6M24-VcMMAE (i.v.) were administered to tumor-bearing mice respectively, and tumor volume and body weight were measured every 2 to 4 days following the initiation of treatment. […] Tumor volume was calculated according to the following equation: Tumor volume = (tumor length × tumor width^2)/2. TGI (%) was calculated as follows: TGI (%) = [1 – (mean of tumor volume in the treatment group)/(mean of tumor volume in the saline group)] × 100.

[2] = system: MIA PaCa-2 cells; assay: 72-h cytotoxicity (MTS), MIA PaCa-2; assay type: cell-based
Protocol: Cells were seeded in wells of a 96-well plate (6000 cells/well) and incubated overnight to allow for cell adherence. On the second day, 100 μL complete medium containing VcMMAE and Sgc8c-M (400, 200, 100, 50, 25, 12.5, and 6.25 nM), as well as MMAE (5, 2.5, 1.25, 0.625, 0.3125, 0.15625, and 0.078125 nM), were added to wells of a 96-well plate for an additional 72-h incubation at 37 °C. At the end of incubation, 100 μL of CellTiter 96® Aqueous One Solution Cell Proliferation Assay (MTS, Promega) solution (prepared by mixing 2 mL MTS with 9 mL of complete medium) were added to each well. The plates were then incubated for an additional 1–2 h to allow for the formation of formazan crystals. The absorbance of each well was measured at 490 nm using a Multi-Mode Microplate Reader (TECAN, SPARK) to assess cell viability. Cell viability was calculated as [OD490 (treatment) - OD490 (blank)]/[OD490 (nontreatment) - OD490 (blank)] × 100%.

[3] = parameters: method as in PMID 31877330; settings: cited from earlier work
[4] = system: TNBC PDX; assay: Antitumor efficacy, TNBC PDX; assay type: in vivo, mice; settings: 10 mg/kg i.p.
Protocol: as §1

[5] = system: SUM159 xenograft; assay: Antitumor efficacy, SUM159 xenograft; assay type: in vivo, mice; settings: 10 mg/kg i.p., Fig. 2c
Protocol: as §1

[6] = target: T1, PTK7 (rat, UniProt A0A8I6AKN3 23-696); assay: SPR; 5 mM Mg2+; Kd only in figure; SPR (Biacore 8K, CM5): DPBS + 5 mM MgCl2, 10 uL/min, 180 s association and dissociation; temperature and pH of running buffer not stated; settings: protein: commercial; tags: His
[7] = target: T2, PTK7 (human, UniProt Q13308 31-704); assay: as above; settings: protein: commercial; tags: His
T2 sequence: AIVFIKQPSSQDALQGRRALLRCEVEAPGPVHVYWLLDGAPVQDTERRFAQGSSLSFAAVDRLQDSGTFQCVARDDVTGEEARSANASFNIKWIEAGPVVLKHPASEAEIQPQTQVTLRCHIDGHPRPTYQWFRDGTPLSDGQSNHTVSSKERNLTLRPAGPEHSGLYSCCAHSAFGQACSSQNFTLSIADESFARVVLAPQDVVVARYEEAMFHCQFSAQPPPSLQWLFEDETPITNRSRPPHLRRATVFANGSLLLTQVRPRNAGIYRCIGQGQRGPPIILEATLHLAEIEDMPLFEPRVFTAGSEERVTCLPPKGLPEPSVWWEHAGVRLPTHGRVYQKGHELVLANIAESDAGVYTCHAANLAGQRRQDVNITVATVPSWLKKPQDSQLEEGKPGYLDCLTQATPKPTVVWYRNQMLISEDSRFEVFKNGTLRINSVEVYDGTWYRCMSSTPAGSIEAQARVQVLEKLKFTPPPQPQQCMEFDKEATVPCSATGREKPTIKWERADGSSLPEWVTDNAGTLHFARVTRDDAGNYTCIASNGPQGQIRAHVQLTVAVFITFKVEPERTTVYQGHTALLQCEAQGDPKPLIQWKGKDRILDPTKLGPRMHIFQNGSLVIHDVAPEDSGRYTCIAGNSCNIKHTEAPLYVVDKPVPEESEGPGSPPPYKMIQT

[8] = target: T3, PTK7 (mouse, UniProt Q8BKG3 23-696); assay: as above; settings: protein: commercial; tags: His
T3 sequence: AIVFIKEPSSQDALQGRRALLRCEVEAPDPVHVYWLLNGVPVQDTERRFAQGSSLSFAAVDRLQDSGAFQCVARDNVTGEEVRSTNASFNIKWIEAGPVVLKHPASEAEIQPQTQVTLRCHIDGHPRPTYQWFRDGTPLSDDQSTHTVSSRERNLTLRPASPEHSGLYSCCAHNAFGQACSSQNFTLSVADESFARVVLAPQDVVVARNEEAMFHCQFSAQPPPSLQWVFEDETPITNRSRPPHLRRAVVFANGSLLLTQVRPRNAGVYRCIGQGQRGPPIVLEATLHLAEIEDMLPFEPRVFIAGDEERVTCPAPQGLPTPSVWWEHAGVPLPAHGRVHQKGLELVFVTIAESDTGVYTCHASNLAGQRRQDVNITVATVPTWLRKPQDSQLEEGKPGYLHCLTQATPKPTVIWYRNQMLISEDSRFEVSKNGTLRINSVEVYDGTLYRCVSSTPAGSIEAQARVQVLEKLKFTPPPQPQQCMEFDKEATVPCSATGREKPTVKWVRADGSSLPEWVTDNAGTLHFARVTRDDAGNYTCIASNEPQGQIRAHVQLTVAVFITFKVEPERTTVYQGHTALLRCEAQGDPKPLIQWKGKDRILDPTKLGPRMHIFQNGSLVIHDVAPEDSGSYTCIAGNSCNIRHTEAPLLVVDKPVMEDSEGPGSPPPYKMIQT

[9] = target: T1, PTK7; assay: SPR; 5 mM Mg2+; 400 nM; Kd only in figure; SPR (Biacore 8K, CM5): DPBS + 5 mM MgCl2, 10 uL/min, 180 s association and dissociation; temperature and pH of running buffer not stated; settings: protein: commercial; tags: His
[10] = target: T2, PTK7; assay: as above; settings: protein: commercial; tags: His
[11] = target: T3, PTK7; assay: as above; settings: protein: commercial; tags: His
[12] = target: T2, PTK7; assay: SPR; 5 mM Mg2+; 400 nM; SPR (Biacore 8K, CM5): DPBS + 5 mM MgCl2, 10 uL/min, 180 s association and dissociation; temperature and pH of running buffer not stated; settings: protein: commercial; tags: His
[13] = target: T4, human PTK7 (Homo sapiens, UniProt Q13308); assay: SPR binding to recombinant human PTK7
T4 construct: His; purchased Sino Biological 19399-H08H
T4 sequence (Q13308 31-704 limits assumed): T2 sequence
Source text: For SPR analysis, human (#19399-H08H, Sino Biological), mouse (HY-P78761, MCE), rat (HY-P78619, MCE), and cynomolgus monkey (#90979-C08H, Sino Biological) PTK7 proteins with His tags were immobilized on a carboxymethylated dextran CM5 chip on SPR (Cytiva Biacore 8 K). Sodium acetate buffer (NaAC) at pH 5.0/5.5 was used for human and cynomolgus monkey PTK7 proteins, while a pH of 4.5 was applied for mouse and rat PTK7 proteins. His protein was simultaneously immobilized on the CM5 chip as a control using pH 4.5 NaAC. The final concentration of all above proteins was 10 μg/mL. Unreacted carboxyl groups were subsequently deactivated using ethanolamine-HCl. Sgc8c were diluted to 25, 50, 100, 200, and 400 nM in running buffer (DPBS supplemented with 5 mM MgCl2), and Sgc8c-M and Ctrl-M were diluted to 400 nM. Sgc8c, Sgc8c-M, and Ctrl-M were sequentially injected over the immobilized surface from low to high concentrations for a 180-s association phase followed by a 180-s dissociation phase at a flow rate of 10 µL/min. The capture surface was regenerated after each cycle with a 30-s contact time of 1.5 M NaCl at a flow rate of 30 µL/min. The equilibrium dissociation constant (Kd) was subsequently analyzed by Biacore Insight Evaluation software.

## CC[C@H](C)[C@@H]([C@@H](CC(=O)N1CCC[C@H]1[C@H](OC)[C@@H](C)C(=O)N[C@H](C)[C@@H](O)c1ccccc1)OC)N(C)C(=O)[C@@H](NC(=O)[C@@H](NC)C(C)C)C(C)C [MMAE, monomethyl auristatin E] (H-[NMeV]V[Dil][Dolaproine]-X1)
[1]
  TGI: 76%
[2]; MIA PaCa-2
  IC50 lower than that of Sgc8c-M: approximately 48 fold
[2]; MIA PaCa-2, 72-h incubation
  IC50: 0.389 nM
[3]; single administration of 0.16 mg/kg
  mortality: 100%

## CC(=O)O[C@H]1C(=O)[C@@]2(C)[C@H]([C@H](OC(=O)c3ccccc3)[C@]3(O)C[C@H](OC(=O)[C@H](O)[C@@H](NC(=O)c4ccccc4)c4ccccc4)C(C)=C1C3(C)C)[C@]1(OC(C)=O)CO[C@@H]1C[C@@H]2O [paclitaxel]
[4]
  tumor growth compared to saline controls: failed to significantly inhibit tumor growth
[5]
  tumor growth relative to saline controls: partially reduced tumor growth

## ATCTAACTGCTGCGCCGCCGGGAAAATACTGTACGGTTAGA (structured_DNA) [Sgc8c]
[6]
  binding result: binds
[7]
  binding result: binds
[8]
  binding result: binds

## ATCTAACTGCTGCGCCGCCGGGAAAATACTGTACGGTTAGA (structured_DNA, 3'-C6-S-maleimide MC-VC-PAB-MMAE conjugate) [Sgc8c-M]
[9]
  binding result: binds
[10]
  binding result: binds
[11]
  binding result: binds

## AGATTGGCATGTCATAAAAGGGCCGCCGCGTCGTCAATCTA (ssDNA, 3'-C6-S-maleimide MC-VC-PAB-MMAE conjugate) [Ctrl-M]
[12]
  binding result: no binding

B1: Disitamab vedotin: clinically approved ADC, anti-HER2 antibody conjugated with MMAE (conjugate, chains of the INN, looked up)
VH: EVQLVQSGAEVKKPGATVKISCKVSGYTFTDYYIHWVQQAPGKGLEWMGRVNPDHGDSYYNQKFKDKATITADKSTDTAYMELSSLRSEDTAVYFCARNYLFDHWGQGTLVTVSS
VL: DIQMTQSPSSVSASVGDRVTITCKASQDVGTAVAWYQQKPGKAPKLLIYWASIRHTGVPSRFSGSGSGTDFTLTISSLQPEDFATYYCHQFATYTFGGGTKVEIK
modifications: MMAE payload
notes: clinically approved ADC, anti-HER2 antibody conjugated with MMAE
[3]; single injection of 18 mg/kg (approx. 0.35 mg/kg MMAE)
  mortality: 50%

B2: h6M24-VcMMAE: PTK7-targeted ADC (DAR4): antibody of h6M24-vc0101 conjugated with the same MMAE payload (conjugate, chains of the INN, looked up)
VH: QVQLVQSGPEVKKPGASVKVSCKASGYTFTDYAVHWVRQAPGKRLEWIGVISTYNDYTYNNQDFKGRVTMTRDTSASTAYMELSRLRSEDTAVYYCARGNSYFYALDYWGQGTSVTVSS
VL: EIVLTQSPATLSLSPGERATLSCRASESVDSYGKSFMHWYQQKPGQAPRLLIYRASNLESGIPARFSGSGSGTDFTLTISSLEPEDFAVYYCQQSNEDPWTFGGGTKLEIK
modifications: vcMMAE payload, DAR4
[13]
  Kd: 3.18 nM
